± gives the uncertainty stated by the source.
B1: POU domain, class 3, transcription factor 4, residues 280 to 335; numbered along this chain, P49335 (parent)
chain: KKRTSIEVSVKGVLETHFLKCPKPAAQEISSLADSLQLEKEVVRVWFCNRRQKEKR

Variants of: B1
Assay: abundance fitness (aPCA) (normalised: wild type 0, dead -1); higher = more abundant; growth selection in yeast, the domain comes from the species named
Conditions: Homo sapiens

Row | Variant | abundance fitness
1 | KKRTSIEVSVKGVLETHFLKCPKPAAQEISSLADVLQLEKEVVRVWFCNRRQKEKR [S35V] | -0.456 ± 0.13
2 | KKRTSIEVSVKGVLETHFLKCPKPAAQEISSLADMLQLEKEVVRVWFCNRRQKEKR [S35M] | 0.127 ± 0.17
3 | KKRTSIEVSVKGVLETHFLKCPKPAAQEISSLADTLQLEKEVVRVWFCNRRQKEKR [S35T] | -0.01 ± 0.13
4 | KKRTSIEVSVKGVLETHFLKCPKPAAQEISSLADSLQLEKEVVRVWFGNRRQKEKR [C48G] | -0.526 ± 0.14
5 | KKRTSIEVSVKGVLETHFLKCPKPAAQEIESLADSLQLEKEVVRVWFCNRRQKEKR [S30E] | 0.215 ± 0.15
6 | KKRTSIEVSVKGVLETHFLKCPKPAAQEIFSLADSLQLEKEVVRVWFCNRRQKEKR [S30F] | -0.332 ± 0.2
7 | KKRTSIEVSVKGVLETHFLKCPKPAAQEIKSLADSLQLEKEVVRVWFCNRRQKEKR [S30K] | -0.003 ± 0.18
8 | KKRTSIEVSVKGVLETHFLKCPKPAAQEICSLADSLQLEKEVVRVWFCNRRQKEKR [S30C] | -0.396 ± 0.27
9 | KKRTSIEVSVKGVLETHFLKCPKPAAQEIPSLADSLQLEKEVVRVWFCNRRQKEKR [S30P] | -0.652 ± 0.24
10 | KKRTSIEVSVKGVLETHFLKCPKPAAWEISSLADSLQLEKEVVRVWFCNRRQKEKR [Q27W] | -0.295 ± 0.15
11 | KKRTSIEVSVKGVLETHFLKCPKPAAQEISSLADSLQLEKGVVRVWFCNRRQKEKR [E41G] | -0.709 ± 0.14
12 | KKRTSIEVSVKGVLETHFLKCPKPAAQEISSLADSLQLEKAVVRVWFCNRRQKEKR [E41A] | -0.776 ± 0.19
13 | KKRTSIEVSVKGVLETHFYKCPKPAAQEISSLADSLQLEKEVVRVWFCNRRQKEKR [L19Y] | -0.518 ± 0.29
14 | KKRTSIEVSVKGVLETHFSKCPKPAAQEISSLADSLQLEKEVVRVWFCNRRQKEKR [L19S] | -0.191 ± 0.14
15 | KKRTSIEVSVKGVLETHFIKCPKPAAQEISSLADSLQLEKEVVRVWFCNRRQKEKR [L19I] | -0.441 ± 0.32
16 | KKRSSIEVSVKGVLETHFLKCPKPAAQEISSLADSLQLEKEVVRVWFCNRRQKEKR [T4S] | 0.213 ± 0.13
17 | KKRRSIEVSVKGVLETHFLKCPKPAAQEISSLADSLQLEKEVVRVWFCNRRQKEKR [T4R] | -0.419 ± 0.11
18 | KKRMSIEVSVKGVLETHFLKCPKPAAQEISSLADSLQLEKEVVRVWFCNRRQKEKR [T4M] | 0.108 ± 0.14
19 | KKRTSIEVSVKGVLRTHFLKCPKPAAQEISSLADSLQLEKEVVRVWFCNRRQKEKR [E15R] | -0.985 ± 0.18
20 | KKRTSIEVSVKGVLQTHFLKCPKPAAQEISSLADSLQLEKEVVRVWFCNRRQKEKR [E15Q] | -0.789 ± 0.31
21 | KKRTSIEVSVKGVLNTHFLKCPKPAAQEISSLADSLQLEKEVVRVWFCNRRQKEKR [E15N] | -0.885 ± 0.26
22 | KKRTSAEVSVKGVLETHFLKCPKPAAQEISSLADSLQLEKEVVRVWFCNRRQKEKR [I6A] | -0.437 ± 0.12
23 | KKRTSWEVSVKGVLETHFLKCPKPAAQEISSLADSLQLEKEVVRVWFCNRRQKEKR [I6W] | -0.244 ± 0.23
24 | KKRTSIEVSVKGVYETHFLKCPKPAAQEISSLADSLQLEKEVVRVWFCNRRQKEKR [L14Y] | -1.08 ± 0.27

Row | Variant | abundance fitness
25 | KKRTSIEVSVKAVLETHFLKCPKPAAQEISSLADSLQLEKEVVRVWFCNRRQKEKR [G12A] | -0.177 ± 0.41
26 | KKRTSIEVSVKRVLETHFLKCPKPAAQEISSLADSLQLEKEVVRVWFCNRRQKEKR [G12R] | -0.219 ± 0.36
27 | KKRTSIEVSVKGVLETHFLKCPKPAAQEISSLADSLQLEKEVVRVQFCNRRQKEKR [W46Q] | -0.403 ± 0.27
28 | KKRTSIEVSVKGVLETHFLKCPKPAAQEISSLADSLQLEKEVVRVFFCNRRQKEKR [W46F] | -1.05 ± 0.34
29 | KKRTSIEVSVKGVLETHFLKCPEPAAQEISSLADSLQLEKEVVRVWFCNRRQKEKR [K23E] | 0.142 ± 0.11
30 | KKRTSIEVSVKGVLETHFLKCPCPAAQEISSLADSLQLEKEVVRVWFCNRRQKEKR [K23C] | 0.218 ± 0.16
31 | KKRTSIEVSVKGVLETHFLKCPQPAAQEISSLADSLQLEKEVVRVWFCNRRQKEKR [K23Q] | 0.064 ± 0.18
32 | KKRTSIEVHVKGVLETHFLKCPKPAAQEISSLADSLQLEKEVVRVWFCNRRQKEKR [S9H] | 0.277 ± 0.45
33 | KKRTSIEVSVKGVLETHFLKCPKPAAQEISSLADSLQLWKEVVRVWFCNRRQKEKR [E39W] | -0.746 ± 0.21
34 | KKRTSIEVSVKGVLETEFLKCPKPAAQEISSLADSLQLEKEVVRVWFCNRRQKEKR [H17E] | -0.172 ± 0.16
35 | KKRTSIEVSVKGVLETMFLKCPKPAAQEISSLADSLQLEKEVVRVWFCNRRQKEKR [H17M] | -0.019 ± 0.15
36 | KKRTSIEVSVKGVLETHFLKCPKPAAQEISSLADSLQLEKEVVRVWQCNRRQKEKR [F47Q] | -0.899 ± 0.31
37 | KKRTSIEVSVKGVLETHFLKCPKPAAQEISSLADSLQLEKEVVRVWDCNRRQKEKR [F47D] | -0.565 ± 0.4
38 | KNRTSIEVSVKGVLETHFLKCPKPAAQEISSLADSLQLEKEVVRVWFCNRRQKEKR [K2N] | -0.058 ± 0.35
39 | KMRTSIEVSVKGVLETHFLKCPKPAAQEISSLADSLQLEKEVVRVWFCNRRQKEKR [K2M] | -0.201 ± 0.24
40 | KKRTSIEVSVKGVLETHFLKCPKPAAQEISSLADSLQMEKEVVRVWFCNRRQKEKR [L38M] | -0.148 ± 0.16
41 | KKRTSIEVSVKGVLETHFLKCPKPAAQEISSLADSLQIEKEVVRVWFCNRRQKEKR [L38I] | 0.048 ± 0.26
42 | KKRTSIEVSVKGVLETHFLKCPKPAAQEISSLADSLQLEKEWVRVWFCNRRQKEKR [V42W] | -0.291 ± 0.15
43 | KKRTSIEVSVKGVLETHFLKCPKPAAQEISSLADSLQLEKEPVRVWFCNRRQKEKR [V42P] | -0.874 ± 0.28
44 | KKRTSIEVSVKGVLETHFLKCPKPAAQEISSLADSLQLEKEVVRVWFCTRRQKEKR [N49T] | -0.363 ± 0.14
45 | KKRTSIEVSVKGVLETHFLKCPKPAAQEISSLADSLQLEKEVVRVWFCDRRQKEKR [N49D] | 0 ± 0.23
46 | KKVTSIEVSVKGVLETHFLKCPKPAAQEISSLADSLQLEKEVVRVWFCNRRQKEKR [R3V] | -0.15 ± 0.13
47 | KKCTSIEVSVKGVLETHFLKCPKPAAQEISSLADSLQLEKEVVRVWFCNRRQKEKR [R3C] | 0.174 ± 0.14

— the Human Domainome abundance scans (Beltran et al. 2025)
